Source: US20080247955A1

Target: Triggering receptor expressed on myeloid cell-1 (TREM-1), human (human) (UniProt Q9NP99)
Assay: cell-based or functional assay

Chain of UniProt Q9NP99 (Q9NP99 21-234): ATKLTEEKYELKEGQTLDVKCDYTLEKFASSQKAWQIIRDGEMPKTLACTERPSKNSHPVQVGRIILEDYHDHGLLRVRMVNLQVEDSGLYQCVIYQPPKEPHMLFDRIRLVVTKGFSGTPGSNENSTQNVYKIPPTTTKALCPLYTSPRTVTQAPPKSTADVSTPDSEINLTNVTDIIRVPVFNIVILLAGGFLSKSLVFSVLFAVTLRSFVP

Question: “anti-hTREM-1 antibody (MAB1278, R&D Systems)” was tested. Which CSF2 (GM-CSF) mRNA induction (microarray, human monocytes) did it give?
Answer: The CSF2 (GM-CSF) mRNA induction (microarray, human monocytes) was 9.6 fold.

Question: And the INHBA transcript fold change (microarray, human monocytes), confirmed at protein level by ELISA?
Answer: The INHBA transcript fold change (microarray, human monocytes), confirmed at protein level by ELISA was 96.7 fold.

Question: What about the M-CSF transcript fold change (microarray, human monocytes), confirmed at protein level by ELISA of the same substance?
Answer: The M-CSF transcript fold change (microarray, human monocytes), confirmed at protein level by ELISA was 22 fold.

Question: And the SPP1 transcript fold change (microarray, human monocytes, 2 hours, α-TREM-1 against control antibody)?
Answer: Its SPP1 transcript fold change (microarray, human monocytes, 2 hours, α-TREM-1 against control antibody) is 28 fold.
